Experiments:
Assay in all cases: two-hybrid library CCNG1;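 note: natural log of median RNA to DNA barcode read ratio; higher means stronger binding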
[1] = target: T1, P8bHq
T1 chain: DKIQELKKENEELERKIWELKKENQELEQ

[2] = target: T2, P7bHq
T2 chain: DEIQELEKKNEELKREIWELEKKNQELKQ

[3] = target: T3, P9bHq
T3 chain: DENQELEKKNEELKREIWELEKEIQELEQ

[4] = target: T4, 4H855-bN
T4 chain: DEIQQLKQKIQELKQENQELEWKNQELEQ

[5] = target: T5, 4H3926-bN
T5 chain: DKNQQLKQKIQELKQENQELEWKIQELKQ

[6] = target: T6, 4H3427-bN
T6 chain: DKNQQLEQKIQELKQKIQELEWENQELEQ

[7] = target: T7, 4H797-bN
T7 chain: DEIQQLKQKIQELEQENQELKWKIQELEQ

[8] = target: T8, 4H4073-bN
T8 chain: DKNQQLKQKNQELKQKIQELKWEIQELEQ

[9] = target: T9, 4H918-bN
T9 chain: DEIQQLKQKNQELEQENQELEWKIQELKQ

[10] = target: T10, 4H754-bN
T10 chain: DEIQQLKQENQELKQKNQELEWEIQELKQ

[11] = target: T11, 4H2702-bN
T11 chain: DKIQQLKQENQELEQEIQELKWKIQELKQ

[12] = target: T12, 4H3112-bN
T12 chain: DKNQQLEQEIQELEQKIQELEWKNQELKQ

[13] = target: T13, 4H346-bN
T13 chain: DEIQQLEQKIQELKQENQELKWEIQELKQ

[14] = target: T14, 4H953-bN
T14 chain: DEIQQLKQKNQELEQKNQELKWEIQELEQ

[15] = target: T15, 4H575-bN
T15 chain: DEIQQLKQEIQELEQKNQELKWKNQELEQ

[16] = target: T16, 4H3010-bN
T16 chain: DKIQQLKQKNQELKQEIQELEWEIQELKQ

[17] = target: T17, 4H780-bN
T17 chain: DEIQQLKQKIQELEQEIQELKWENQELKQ

[18] = target: T18, 4H968-bN
T18 chain: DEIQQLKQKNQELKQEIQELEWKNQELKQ

[19] = target: T19, 4H683-bN
T19 chain: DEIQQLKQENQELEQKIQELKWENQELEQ

[20] = target: T20, 4H457-bN
T20 chain: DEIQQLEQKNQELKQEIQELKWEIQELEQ

[21] = target: T21, 4H3843-bN
T21 chain: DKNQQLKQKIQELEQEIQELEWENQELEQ

[22] = target: T22, 4H2697-bN
T22 chain: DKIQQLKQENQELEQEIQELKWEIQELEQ

[23] = target: T23, 4H3606-bN
T23 chain: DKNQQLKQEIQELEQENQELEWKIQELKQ

[24] = target: T24, 4H883-bN
T24 chain: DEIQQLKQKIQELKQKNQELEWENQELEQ

[25] = target: T25, 4H967-bN
T25 chain: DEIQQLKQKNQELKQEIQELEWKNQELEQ

[26] = target: T26, 4H331-bN
T26 chain: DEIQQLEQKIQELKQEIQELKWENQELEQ

[27] = target: T27, 4H462-bN
T27 chain: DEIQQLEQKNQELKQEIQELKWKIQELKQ

[28] = target: T28, 4H3189-bN
T28 chain: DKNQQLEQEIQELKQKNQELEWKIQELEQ

[29] = target: T29, 4H3782-bN
T29 chain: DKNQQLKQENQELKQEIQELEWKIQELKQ

[30] = target: T30, 4H4001-bN
T30 chain: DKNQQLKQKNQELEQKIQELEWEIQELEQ

[31] = target: T31, 4H370-bN
T31 chain: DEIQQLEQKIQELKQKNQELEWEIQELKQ

[32] = target: T32, 4H568-bN
T32 chain: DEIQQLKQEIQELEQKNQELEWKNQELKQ

[33] = target: T33, 4H72-bN
T33 chain: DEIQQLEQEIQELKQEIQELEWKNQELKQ

[34] = target: T34, 4H607-bN
T34 chain: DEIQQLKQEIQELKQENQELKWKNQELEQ

[35] = target: T35, 4H687-bN
T35 chain: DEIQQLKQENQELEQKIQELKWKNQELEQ

[36] = target: T36, O7-bN
T36 chain: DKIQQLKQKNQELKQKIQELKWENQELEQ

[37] = target: T37, O4-bN
T37 chain: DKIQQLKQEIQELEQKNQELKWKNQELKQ

[38] = target: T38, O5-bN
T38 chain: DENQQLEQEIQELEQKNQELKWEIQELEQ

[39] = target: T39, O6-bN
T39 chain: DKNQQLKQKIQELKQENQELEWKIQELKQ

[40] = target: T40, O9-bN
T40 chain: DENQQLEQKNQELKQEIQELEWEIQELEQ

[41] = target: T41, O3-bN
T41 chain: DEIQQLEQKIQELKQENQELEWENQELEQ

[42] = target: T42, O8-bN
T42 chain: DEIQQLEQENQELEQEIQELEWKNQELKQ

[43] = target: T43, O2-bN
T43 chain: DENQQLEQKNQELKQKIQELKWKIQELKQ

[44] = target: T44, O16-bN
T44 chain: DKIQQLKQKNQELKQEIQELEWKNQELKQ

Binder: DEIQELEKKNEELKREIWELEKKNQELKQ [P7bHq]
- interaction score [1]: 2.08
- interaction score [2]: -1.98
- interaction score [3]: 0.211

Binder: DKIQQLKQENQELEQEIQELKWKIQELKQ [4H2702-bN]
- interaction score [4]: -1.49
- interaction score [5]: 0.223
- interaction score [6]: -0.588
- interaction score [7]: 0.189
- interaction score [8]: 2.14
- interaction score [9]: -0.128
- interaction score [10]: -1.18
- interaction score [11]: 1.44
- interaction score [12]: -0.298
- interaction score [13]: -0.668
- interaction score [14]: -0.0124
- interaction score [15]: -0.212
- interaction score [16]: 2.05
- interaction score [17]: -0.44
- interaction score [18]: 1.31
- interaction score [19]: 0.0387
- interaction score [20]: 1.25

Binder: DKIQQLKQENQELEQEIQELKWEIQELEQ [4H2697-bN]
- interaction score [21]: -0.916
- interaction score [22]: -0.736
- interaction score [23]: -0.924
- interaction score [24]: -0.654
- interaction score [25]: -1.15
- interaction score [26]: -0.941
- interaction score [7]: -0.83
- interaction score [9]: -1.97
- interaction score [27]: 1.31
- interaction score [28]: -1.43
- interaction score [29]: -1.03
- interaction score [14]: -0.808
- interaction score [30]: -0.819
- interaction score [31]: -0.695
- interaction score [32]: -1.07
- interaction score [33]: -1.14
- interaction score [34]: -1.63
- interaction score [35]: -1.12

Binder: DEIQQLEQKIQELKQENQELEWENQELEQ [O3-bN]
- interaction score [36]: -1.23
- interaction score [37]: 2.41
- interaction score [38]: -0.619
- interaction score [39]: -0.337
- interaction score [40]: -0.842
- interaction score [41]: -0.142
- interaction score [42]: -0.285

Binder: DKIQQLKQKNQELKQEIQELEWKNQELKQ [O16-bN]
- interaction score [36]: -0.333
- interaction score [43]: -0.944
- interaction score [37]: -0.0984
- interaction score [44]: 0.145
- interaction score [38]: -2.84
- interaction score [39]: 0.821
- interaction score [40]: -0.976
- interaction score [41]: -0.113
- interaction score [42]: 0.95
